B1: ALBINO3-like protein 1, chloroplastic (Arabidopsis thaliana (Mouse-ear cress)), Q9FYL3 (parent)
chain: MSSTISLKPTHLILSSFSTGKVLQFRRSRFSHTPSSSSSRYRTLVAQLGFRPDSFDFIKDHAENLLYTIADAAVSSSETFESVAGTTTKTTQSNDWFSGIANYMETILKVLKDGLSTVHVPYSYGFAIILLTVLVKAATFPLTKKQVESAMAMKSLTPQIKAIQERYAGDQEKIQLETARLYKLAGINPLAGCLPTLATIPVWIGLYRALSNVADEGLLTEGFFWIPSLAGPTTVAARQNGSGISWLFPFIEGHPPLGWPDTLAYLVLPLLLVFSQYLSIQIMQSSQSNDPAMKSSQAVTKLLPLMIGYFALSVPSGLSLYWLTNNILSTAQQVWLQKYGGAKNPVEKFTNLVTKEDKTQQIEKSFSEPLVQKSVSELKIPREKGGEKVTPECPKPGERFRLLKEQEAKRRREKEERQKAEAALSNQNTDKAHEQDEKSDTAIVAEDDKKTELSAVDETSDGTVAVNGKPSIQKDETTNGTFGIGHDTEQQHSHETEKR
partner: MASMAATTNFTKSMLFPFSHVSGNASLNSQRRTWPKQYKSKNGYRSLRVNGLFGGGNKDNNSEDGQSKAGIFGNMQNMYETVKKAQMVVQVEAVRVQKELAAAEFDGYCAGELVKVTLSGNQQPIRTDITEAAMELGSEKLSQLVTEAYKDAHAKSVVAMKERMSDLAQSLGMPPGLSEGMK

Variants of: B1
Settings: with ebfc2_arath STIC2, O82230

effect of a mutation on the interaction | Variant
decreasing interaction strength | MSSTISLKPTHLILSSFSTGKVLQFRRSRFSHTPSSSSSRYRTLVAQLGFRPDSFDFIKDHAENLLYTIADAAVSSSETFESVAGTTTKTTQSNDWFSGIANYMETILKVLKDGLSTVHVPYSYGFAIILLTVLVKAATFPLTKKQVESAMAMKSLTPQIKAIQERYAGDQEKIQLETARLYKLAGINPLAGCLPTLATIPVWIGLYRALSNVADEGLLTEGFFWIPSLAGPTTVAARQNGSGISWLFPFIEGHPPLGWPDTLAYLVLPLLLVFSQYLSIQIMQSSQSNDPAMKSSQAVTKLLPLMIGYFALSVPSGLSLYWLTNNILSTAQQVWLQKYGGAKNPVEKFTNLVTKEDKTQQIEKSFSEPLVQKSVSELKIPREKGGEKVTPECPKPSERFRLLKEQEAKRRREKEERQKAEAALSNQNTDKAHEQDEKSDTAIVAEDDKKTELSAVDETSDGTVAVNGKPSIQKDETTNGTFGIGHDTEQQHSHETEKR [G397S]

Variants of: B1
Settings: with ebfc2_arath STIC2, O82230
Remark: another data set of the same source

effect of a mutation on the interaction | Variant
with no effect | MSSTISLKPTHLILSSFSTGKVLQFRRSRFSHTPSSSSSRYRTLVAQLGFRPDSFDFIKDHAENLLYTIADAAVSSSETFESVAGTTTKTTQSNDWFSGIANYMETILKVLKDGLSTVHVPYSYGFAIILLTVLVKAATFPLTKKQVESAMAMKSLTPQIKAIQERYAGDQEKIQLETARLYKLAGINPLAGCLPTLATIPVWIGLYRALSNVADEGLLTEGFFWIPSLAGPTTVAARQNGSGISWLFPFIEGHPPLGWPDTLAYLVLPLLLVFSQYLSIQIMQSSQSNDPAMKSSQAVTKLLPLMIGYFALSVPSGLSLYWLTNNILSTAQQVWLQKYGGAKNPVEKFTNLVTKEDKTQQIEKSFSEPLVQKSVSELKIPREKGGEKVTPECPKPSERFRLLKEQEAKRRREKEERQKAEAALSNQNTDKAHEQDEKSDTAIVAEDDKKTELSAVDETSDGTVAVNGKPSIQKDETTNGTFGIGHDTEQQHSHETEKR [G397S]

— IntAct's records for PubMed 28684427
